Assay results reported in patent US20240199757A1 (UNIVERSITY OF CHICAGO, published 2024).
Where a chain is given by its changes, count along the chain named.

Columns and labels:
[1] = target: T1, Full-length human NT5E (recombinant, in-house) (human, UniProt P21589 27-549); test: ELISA, biotinylated NT5E on neutravidin plate, no cofactors (apo)
T1 construct: also called hNT5E; hNT5EWT
T1 sequence: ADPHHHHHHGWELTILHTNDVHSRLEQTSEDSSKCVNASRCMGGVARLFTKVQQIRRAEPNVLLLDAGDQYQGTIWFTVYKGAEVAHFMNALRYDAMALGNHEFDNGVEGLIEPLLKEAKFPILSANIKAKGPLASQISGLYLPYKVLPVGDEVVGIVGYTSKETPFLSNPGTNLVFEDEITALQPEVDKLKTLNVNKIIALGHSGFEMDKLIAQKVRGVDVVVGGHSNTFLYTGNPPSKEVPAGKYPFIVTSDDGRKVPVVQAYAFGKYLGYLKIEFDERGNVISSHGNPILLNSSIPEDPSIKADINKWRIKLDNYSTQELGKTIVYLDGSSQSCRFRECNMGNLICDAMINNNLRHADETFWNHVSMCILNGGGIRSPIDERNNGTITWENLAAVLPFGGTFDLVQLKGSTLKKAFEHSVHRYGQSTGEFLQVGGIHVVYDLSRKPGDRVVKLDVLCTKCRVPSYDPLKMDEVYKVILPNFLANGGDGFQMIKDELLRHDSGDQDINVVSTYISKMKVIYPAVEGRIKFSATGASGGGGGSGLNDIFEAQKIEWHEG
Procedure: (§1) (B) Protein ELISA: Protein-based multipoint ELISA was performed to estimate the affinity of the generated Fabs and IgGs to NT5E. The binding of the Fabs and IgGs to the closed form of NT5E were determined in ELISA buffer (HBST) supplemented with 10 μM zinc chloride and 1 mM ATP while the binding of the same to open form of NT5E were determined in ELISA buffer (HBST) without any cofactors. A fixed concentration of the immobilized target (50 nM) on ELISA plate was incubated with 3-fold serial dilutions of the purified Fabs and IgGs starting from 3 μM and 1 μM respectively for 15 min. The plates were washed and were subsequently incubated with a secondary HRP-conjugated anti-protein L monoclonal antibody (#32420, ThermoFisher, 1:6000 dilution). As with phage ELISA, the plates were again washed, developed with TMB substrate and quenched with 1.0 M HCl, and absorbance (Abs450) was determined. To determine the affinity (EC50), the data were fitted with a non-linear, 4-parameter logistic curve in OriginLab.

[2] = target: T2, Full-length cynomolgus NT5E (recombinant) (cynomolgus, UniProt P21589 27-549 (human entry)); test: as above
T2 construct: also called cNT5E; cyno NT5E
T2 chain: T1 sequence with M209T, T363M, V476I
Procedure: as §1

[3] = target: T3, murine NT5E expressed on 4T1 cells (murine, UniProt Q61503 29-551); test: flow cytometry on 4T1 cells, 1 mM ATP; +ATP (1 mM), 4T1 cells
T3 construct: whole, on cells; also called mouse NT5E-expressing 4T1 cells
T3 sequence (looked up): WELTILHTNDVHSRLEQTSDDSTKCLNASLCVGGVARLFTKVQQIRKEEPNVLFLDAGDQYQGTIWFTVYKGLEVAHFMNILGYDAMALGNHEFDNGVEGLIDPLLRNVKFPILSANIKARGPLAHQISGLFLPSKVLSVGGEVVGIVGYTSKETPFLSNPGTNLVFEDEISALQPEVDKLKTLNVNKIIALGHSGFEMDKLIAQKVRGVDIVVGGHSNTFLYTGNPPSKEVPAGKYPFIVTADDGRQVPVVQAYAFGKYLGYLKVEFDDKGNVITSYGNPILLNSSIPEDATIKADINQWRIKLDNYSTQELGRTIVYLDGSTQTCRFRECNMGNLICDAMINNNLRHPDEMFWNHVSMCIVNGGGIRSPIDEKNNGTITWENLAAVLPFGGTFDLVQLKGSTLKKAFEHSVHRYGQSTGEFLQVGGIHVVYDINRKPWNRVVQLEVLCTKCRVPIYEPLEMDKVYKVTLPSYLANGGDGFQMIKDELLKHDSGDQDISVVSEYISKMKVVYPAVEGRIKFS
Procedure: Human MDA-MB-231 cells and murine 4T1 cells were grown to 90% confluency, detached with 5 mM EDTA for 15 min at 37° C. and then resuspended in 37° C. lx PBS (#10010031, Gibco) supplemented with 1% FBS and 1OpM ZnCl2. Separate working buffers (WB) of PBS and 1% FBS with or without fixed nucleotide concentrations were used throughout all washing steps to maintain constant condition. In 96-well plates (#3799, Costar), 0.2×10⁶ cells were added per well. The plates were spun at 500×g for 5 min and the supernatant was removed. Anti-NT5E antibodies were diluted to the desired concentration in 100 μL WB, added to the cells and the plates were incubated for 20 min at 37° C. Plates were spun and cells were washed twice with WB then spun a second time. Cells were stained with 100 μL of secondary antibody (Alexa Fluor 647 AffiniPure Goat Anti-Human IgG, F(ab′)2 fragment specific, #109-605-006, Jackson, 1:200) dilution and plates were incubated for 20 min at 37° C. Cells were washed twice with WB then fixed on ice with WB supplemented with 0.5% PFA. Fixing solution was removed by centrifugation and cells were resuspended in cold 1× PBS. Samples were analyzed by flow cytometry using CytoFLEX (Beckman Coulter) and mean fluorescence intensity (MFI) data was extracted using FlowJo software. Resulting binding data was plotted using OriginLab.

B1: 1789 IgG (antibody, V domains shown)
VH: EVQLVESGGGLVQPGGSLRLSCAASGFNVSYSSIHWVRQAPGKGLEWVASISSSSGYTYYADSVKGRFTISADTSKNTAYLQMNSLRAEDTAVYYCARNYWGWYPFYYFAFDYWGQGTLVTVSS
VL: DIQMTQSPSSLSASVGDRVTITCRASQSVSSAVAWYQQKPGKAPKLLIYSASSLYSGVPSRFSGSRSGTDFTLTISSLQPEDFATYYCQQGWDYPITFGQGTKVEIKR
- EC50 [1]: 2.14 nM
- EC50 [2]: 1.04 nM
- EC50 [3]: 37 nM
